≈ marks a conversion by molar mass, not a printed value. Read-outs that look alike come from different tables or passages of the source. Where a SMILES comes first, the peptide text is derived from it. The star is where a group is joined. NEt(2-(20S-CPT-7-yl)ethyl) = CCN(CCc1c2c(nc3ccccc13)-c1cc3c(c(=O)n1C2)COC(=O)[C@]3(O)CC)*; X3 = CC[C@@]1(O)C(=O)OCc2c1cc1n(c2=O)Cc2c-1nc1ccccc1c2CCN(C1CC1)*; Propanoyl(3-maleimido) = O=C1C=CC(=O)N1CCC(=O)*; PEG6 = NCCOCCOCCOCCOCCOCCOCCC(=O)O
Assays:
A2780 (ovarian cancer) = test: cells; format: cell-based; details: CCK8, 48 h; Table 6
How it was run: (§1)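 Proliferation was assessed by seeding 5,000 cells per well onto medium already containing the test drug at various concentrations. Plates stood 48 h at 37° C, then took CCK8 staining (~2 h) before A450 measurement. Median inhibitory concentrations come from survival relative to 0.1% DMSO controls.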

[1] = system: A549 (non-small cell lung cancer); test: cells; format: cell-based; details: CCK8, 48 h; Table 6
How it was run: as §1

SJSA-1 (sarcoma tissue) = test: cells; format: cell-based; details: CCK8, 48 h; Table 6
How it was run: as §1

[2] = system: SKBR3 (breast cancer tissue); test: cells; format: cell-based; details: CCK8, 48 h; Table 6
How it was run: as §1

[3] = system: colo320 (colorectal cancer tissue); test: cells; format: cell-based; details: CCK8, 48 h; Table 6
How it was run: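 Colo320 cells, 5,000 per well, exposed to drug concentration series for 48 h at 37 °C, 5% CO2 (0.1% DMSO controls). Viability by CCK8, absorbance at 450 nm after about 2 h. Survival rates and IC50 calculated.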

[4] = system: sarcoma SJSA-1 tumor model; details: Table 7
How it was run: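 Female BALB/c nude mice (6-8 weeks) bearing subcutaneous right-chest SJSA-1 xenografts from 2×10^7 cells were randomized, three per group, once tumors reached at least 100 mm^3. Treatment given once a week for three weeks starting day 1; saline controls.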

[5] = system: colo320 colorectal cancer tumor model
How it was run: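 Dosing was once a week for four weeks, with saline as control, in randomized groups of three mice. Groups were formed after subcutaneous colo320 xenografts (7.5×10^6 cells, right chest) grew to ≥120 mm^3 in female 6–8-week-old BALB/c nude mice.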

[6] = system: sarcoma SJSA-1 tumor model; test: Efficacy in animal model of sarcoma SJSA-1, 30 mg/kg once a week for two weeks (Example 40); format: in vivo, BALB/c mice; details: 30 mg/kg once a week for two weeks
Description: Test objective: To further compare the antitumor efficacy of different polypeptide Linkers in an animal tumor model of sarcoma SJSA-1.
(§2) Test drug: Polypeptide conjugate and normal saline control group.
The control group was administered normal saline. Administration was performed once a week for two weeks.

[7] = MTD determination in mice (Examples 27, 36, 44); format: in vivo; details: female, mouse, in vivo; mice, monitored for 14 d; Table 9
From the text: Test animals: 6-8 weeks old mice, all female; mice were grouped randomly, with six mice in each group, administered with drugs at different concentration gradients separately and monitored for 14 d. A mouse was euthanized at a loss of 20% of its initial weight and deemed to have died of poisoning.

[8] = Tumor homogenate activation efficiency, ovarian cancer tissue (Examples 28, 37); format: in vitro ADME; details: pH 5.0, 37° C., 2 h; Table 10
How it was run: (§3)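 Conjugate at 1 mg/ml in pH 5.0 buffer (50 mM MES, 250 mM NaCl) incubated with 100 μg tissue homogenate at 37° C. for 2 h. HPLC read-out; release % = Belotecan peak area over total area of Belotecan plus all Belotecan-containing species.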

[9] = Tumor homogenate activation efficiency, sarcoma tissue (Examples 28, 37); format: in vitro ADME; details: pH 5.0, 37° C., 2 h; Table 10
How it was run: as §3

[10] = Tumor homogenate activation efficiency, breast cancer tissue (Examples 28, 37); format: in vitro ADME; details: pH 5.0, 37° C., 2 h; Table 10
How it was run: as §3

[11] = Tumor homogenate activation efficiency, non-small cell lung cancer tissue (Examples 28, 37); format: in vitro ADME; details: pH 5.0, 37° C., 2 h; Table 10
How it was run: as §3

[12] = Tumor homogenate activation efficiency, colorectal cancer tissue (Example 37); format: in vitro ADME; details: pH 5.0, 37° C., 2 h; Table 10
Description: Buffer preparation: 50 mM PH buffer (MES), 250 mM NaCl, pH adjusted to 5.0 with 0.5 M of sodium hydroxide.
The polypeptide conjugate was prepared into a 1 mg/ml solution with pH 5.0 buffer, 100 μg of tumor tissue homogenate was added, (the tumor tissue homogenate was the homogenate of tumor tissues prepared with a Jingxin F6/10 handheld homogenizer), and the solution was placed at 37° C. for 2 h. The tumor tissue homogenate could effectively activate the polypeptide conjugate and release Belotecan, and the activation efficiencies of the drugs in tumor tissues were compared by HPLC allowing determination of a decrease in the compounds and an increase in Belotecan:
Release percentage=peak area of Belotecan/total peak area of Belotecan and all other Belotecan-containing compounds

[13] = Homogenate activation efficiency, heart tissue (Examples 28, 37); format: in vitro ADME; details: pH 5.0, 37° C., 2 h; Table 10
[14] = system: A2780 ovarian cancer tumor model; test: Efficacy in animal model of A2780 ovarian cancer, 30 mg/kg once a week for two weeks (Example 41); format: in vivo, BALB/c mice; details: Day 14
Description: Test objective: To further compare the antitumor efficacy of different polypeptide Linkers in an animal tumor model of A2780 ovarian cancer.
as §2
8×10^6 corresponding cells were injected into right axillas of nude mice subcutaneously. […] The negative control group was administered normal saline. Administration was performed once a week for two weeks.

[15] = 15 mg/kg once a week for three weeks
[16] = 45 mg/kg once a week for three weeks
[17] = 45 mg/kg once a week for four weeks, Table 8
[18] = Table 14 (Example 43), dose 45 mg/kg, once a week for four weeks, BALB/c mice

SMILES	IC50 Ovarian cancer tissue (A2780) (A2780 (ovarian cancer)) [µg/mL]	IC50 Non-small cell lung cancer tissue (A549) [1] [µg/mL]	IC50 Sarcoma tissue (SJSA-1) (SJSA-1 (sarcoma tissue)) [µg/mL]	IC50 Breast cancer tissue (SKBR3) [2] [µg/mL]	IC50 Colorectal cancer tissue (colo320) [3] [µg/mL]	Mouse weight (%) [4, 15]	Mouse weight (%) [4, 16]	Mouse weight (%) [5, 17]	Mouse weight (%) on Day 14 ([6]; Day 14)	MTD at 14 d [7] [mg/kg]	Percentage of release efficiency (%) Ovarian cancer tissue (A2780) [8] [%]	Percentage of release efficiency (%) Sarcoma tissue (SJSA1) [9] [%]	Percentage of release efficiency (%) Breast cancer tissue (SKBR3) [10] [%]	Percentage of release efficiency (%) Non-small cell lung cancer tissue (A549) [11] [%]	Percentage of release efficiency (%) Colorectal cancer tissue (colo320) [12] [%]	Percentage of release efficiency (%) Heart tissue [13] [%]	further results
CCN(CCc1c2c(nc3ccccc13)-c1cc3c(c(=O)n1C2)COC(=O)[C@]3(O)CC)C(=O)[C@H](CC(C)C)NC(=O)[C@H](CC(N)=O)NC(=O)[C@H](C)NC(=O)[C@H](C)NC(=O)CCOCCOCCOCCOCCOCCOCCNC(=O)CCN1C(=O)C=CC1=O [MI-6PEG-AANL-D2] ({Propanoyl(3-maleimido)-PEG6}-AANL-{NEt(2-(20S-CPT-7-yl)ethyl)})	1.31 (≈ 1.03 µM)	2.57 (≈ 2.02 µM)	1.58 (≈ 1.24 µM)	3.28 (≈ 2.57 µM)	4.65 (≈ 3.65 µM)	+41%	+24%	+19%	+1.9%	200	71.3	67.1	73.5	73.6	65	0.9	SJSA-1 (sarcoma tissue) growth rate (%) [4, 15]: 1316.56%; SJSA-1 (sarcoma tissue) mean tumor volume (mm^3) [4, 15]: 1645.7 mm^3; SJSA-1 (sarcoma tissue) growth rate (%) [4, 16]: 964.08%; SJSA-1 (sarcoma tissue) mean tumor volume (mm^3) [4, 16]: 1213.3 mm^3; colo320 (colorectal cancer cell) growth rate (%) [5, 17]: 760.87%; colo320 (colorectal cancer cell) mean tumor volume (mm^3) [5, 17]: 894.4 mm^3; Mouse weight (%) [5, 18]: +19%; colo320 (colorectal cancer cell) growth rate (%) [5, 18]: 760.87%; colo320 (colorectal cancer cell) mean tumor volume (mm^3) [5, 18]: 894.4 mm^3; SJSA-1 (sarcoma tissue) mean tumor volume (mm^3) Day 1 ([6]; Day 1): 136.59 mm^3; SJSA-1 (sarcoma tissue) mean tumor volume (mm^3) Day 4 ([6]; Day 4): 465.17 mm^3; SJSA-1 (sarcoma tissue) mean tumor volume (mm^3) Day 7 ([6]; Day 7): 891.36 mm^3; SJSA-1 (sarcoma tissue) mean tumor volume (mm^3) Day 10 ([6]; Day 10): 1320.55 mm^3; SJSA-1 (sarcoma tissue) growth rate (%) on Day 14 ([6]; Day 14): 1623.94%; SJSA-1 (sarcoma tissue) mean tumor volume (mm^3) Day 14 ([6]; Day 14): 2218.14 mm^3
CC[C@@]1(O)C(=O)OCc2c1cc1n(c2=O)Cc2c-1nc1ccccc1c2CCN(C(=O)[C@H](CC(C)C)NC(=O)[C@H](CC(N)=O)NC(=O)[C@H](C)NC(=O)[C@H](C)NC(=O)CCOCCOCCOCCOCCOCCOCCNC(=O)CCN1C(=O)C=CC1=O)C1CC1 [MI-6PEG-AANL-D6] ({Propanoyl(3-maleimido)-PEG6}-AANL-X3)	0.70 (≈ 0.544 µM)	1.38 (≈ 1.07 µM)	0.51 (≈ 0.396 µM)	2.02 (≈ 1.57 µM)	1.87 (≈ 1.45 µM)	+19%	+17%	+5%	−2.5%	120	76.2	69.5	66.9	66.1	73.5	3	Mouse weight (%) ([5]; 15 mg/kg once a week for four weeks, Table 8): +25%; Mouse weight (%) on Day 14 [14]: +5.2%
